Laboratory results: patent US20140086916A1 (Merck Sharp & Dohme, published 2014)
Several values for one entry are separate records, joined by “and”; a condition that tells them apart may be missing. Equal entries are not always repeated. Where two headings read alike, the source gives them in different places.

B1: 1F11 wildtype (parent) humanized anti-PCSK9 monoclonal IgG1 antibody (antibody)
heavy: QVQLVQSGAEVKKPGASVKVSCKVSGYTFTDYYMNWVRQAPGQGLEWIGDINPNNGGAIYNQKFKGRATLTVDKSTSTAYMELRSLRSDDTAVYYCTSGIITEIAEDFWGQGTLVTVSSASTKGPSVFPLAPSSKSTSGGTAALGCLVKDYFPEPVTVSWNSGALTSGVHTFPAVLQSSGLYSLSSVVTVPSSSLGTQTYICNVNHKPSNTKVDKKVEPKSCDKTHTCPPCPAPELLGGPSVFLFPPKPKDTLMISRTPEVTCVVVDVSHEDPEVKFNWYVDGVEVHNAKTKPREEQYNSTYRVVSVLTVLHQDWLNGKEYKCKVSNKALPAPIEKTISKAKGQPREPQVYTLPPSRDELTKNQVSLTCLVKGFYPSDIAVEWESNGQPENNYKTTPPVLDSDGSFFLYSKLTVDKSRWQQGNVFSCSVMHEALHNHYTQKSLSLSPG
light: DIQMTQSPSSLSASVGDRVTITCKASQNVGTNVVWYQQKPGKAPKALIHSASYRYSGVPSRFSGSGSGTDFTLTISSLQPEDFATYYCQQYKTYPYTFGQGTKVEIKRTVAAPSVFIFPPSDEQLKSGTASVVCLLNNFYPREAKVQWKVDNALQSGNSQESVTEQDSKDSTYSLSSTLTLSKADYEKHKVYACEVTHQGLSSPVTKSFNRGEC
notes: Produced in glycoengineered Pichia pastoris GFI5.0 (strain YGLY21351); also called 1F11 IgG1 GS5.0; YGLY21351
B2: 1F11 IgG1 F243A/V264A double mutein anti-PCSK9 antibody (antibody)
heavy: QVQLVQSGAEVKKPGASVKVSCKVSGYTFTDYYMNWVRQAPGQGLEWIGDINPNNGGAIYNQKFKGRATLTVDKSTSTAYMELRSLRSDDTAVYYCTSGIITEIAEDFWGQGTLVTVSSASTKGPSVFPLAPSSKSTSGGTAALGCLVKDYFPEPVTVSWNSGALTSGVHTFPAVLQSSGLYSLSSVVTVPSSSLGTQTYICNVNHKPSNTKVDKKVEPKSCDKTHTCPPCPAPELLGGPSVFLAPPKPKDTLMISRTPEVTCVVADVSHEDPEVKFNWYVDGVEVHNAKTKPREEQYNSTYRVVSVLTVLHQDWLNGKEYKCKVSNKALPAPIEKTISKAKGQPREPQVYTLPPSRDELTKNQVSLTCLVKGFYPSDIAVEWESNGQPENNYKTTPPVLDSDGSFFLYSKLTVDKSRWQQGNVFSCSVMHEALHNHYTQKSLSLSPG
light: B1 light
notes: sialylated N-glycans; also called 1F11 DM; YGLY23258

Tests used:
[1] = molecular target: T1, FcγRIIIa-F158 (Pichia pastoris produced) (UniProt P08637 17-208, limits assumed); test: fold change of the Table 12 affinities (reference row)
T1 construct: also called FcγRIIIA LF; FcgRIIIA LF
Method: (§1) Fcγ receptor binding assays were carried out as described (Shields, et al. (2001) J. Biol. Chem. 276:6591-6604) with minor modifications. High protein binding 96-well plates (Corning Costar) were coated with 100 μL per well of Fcγ receptor solutions in PBS at the following concentrations: 1 μg/mL for both FcγRI (R&D Systems) and FcγRIIa (Pichia pastoris produced), 2 μg/mL for FcγRIIb (P. pastoris produced), 0.8 μg/mL for FcγRIIIa-F158, and 0.4 μg/mL for FcγRIIIa-V158 (both P. pastoris produced). All Pichia pastoris produced receptors were expressed and purified as described (Li, et al. (2006) Nature Biotechnology 24:210-215). Monomeric antibody samples added to the FcγRI plate were serially diluted in assay diluent (1×PBS, 1% BSA, and 0.05% Tween20) and 100 μL, per well was added to the plate. Antibody samples prepared for the remaining receptors require a one hour dimerization step with half molar ratio of goat anti-human IgG F(ab′)2 F(ab′)2 that is conjugated with alkaline phosphatase for detection. These dimerized F(ab′)2/antibody complexes were also serially diluted and 100 μL per well were added to the remaining receptor plates and all plates were incubated for one hour at room temperature. FcγRI bound sample antibody was detected using the same goat anti-human IgG F(ab′)2 alkaline phosphatase conjugated F(ab′)2. Sample antibody binding was quantified by measuring excitation at 340 nm and emission at 465 nm after 18 hour incubation with SuperPhos, 4-MUP Fluorescence AP Substrate Detection System (Virolabs).

[2] = molecular target: T2, FcγRIIIa-V158 (Pichia pastoris produced) (UniProt P08637 17-208, limits assumed); test: as above
T2 construct: also called FcγRIIIA LV; FcgRIIIA LV
Method: as §1

[3] = molecular target: T3, FcγRIIb (Pichia pastoris produced) (UniProt P31994 43-217, limits assumed); test: as above
T3 construct: also called FcgRIIB; CD32B
T3 sequence (looked up): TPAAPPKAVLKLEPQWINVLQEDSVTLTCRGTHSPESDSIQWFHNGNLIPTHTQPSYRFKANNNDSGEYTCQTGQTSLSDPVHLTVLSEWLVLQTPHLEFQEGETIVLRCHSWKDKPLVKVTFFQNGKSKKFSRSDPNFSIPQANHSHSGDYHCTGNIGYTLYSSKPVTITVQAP
Method: as §1

[4] = molecular target: T4, FcγRIIA H (UniProt P12318 34-217, limits assumed); test: as above
T4 construct: also called FcgRIIA H
T4 sequence (looked up): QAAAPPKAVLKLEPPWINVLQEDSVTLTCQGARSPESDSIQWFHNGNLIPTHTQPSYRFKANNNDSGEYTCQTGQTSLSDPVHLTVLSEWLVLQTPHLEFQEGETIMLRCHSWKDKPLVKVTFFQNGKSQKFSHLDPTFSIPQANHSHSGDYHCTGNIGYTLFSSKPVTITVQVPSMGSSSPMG
Method: as §1

[5] = molecular target: T5, wild-type human PCSK9 (human, UniProt Q8NBP7 31-692, limits assumed); test: SPR (Biacore T100), antibody captured by anti-human Fc, PCSK9 as analyte, 1:1 model
T5 construct: also called PCSK9 antigen
Method: The CM5 chip was immobilized on all flowcells with mouse anti-human IgG (Fc specific) according to the Biacore Human Antibody Capture Kit (Cat# BR-1008-39) to ˜7000RU. Anti-PCSK9 antibodies were captured on the chip to ˜500RU followed by analyte injections of wild-type human PCSK9 from 64.1 nM to 2.0 nM. Each flowcell was regenerated between each analyte injection with 3M MgCl for 40 seconds at 10 uL/min. Data was analyzed with Biacore T100 Evaluation Software using the 1:1 binding model using at least 5 point concentration range sensogram.

[6] = molecular target: T1, FcγRIIIa-F158 (Pichia pastoris produced); test: ELISA-type plate assay, FcγR coated, antibody dimerized with AP-conjugated goat anti-human IgG F(ab')2, RFU readout
Method: as §1

[7] = molecular target: T3, FcγRIIb (Pichia pastoris produced); test: as above
Method: as §1

[8] = molecular target: T3, FcγRIIb (Pichia pastoris produced); test: FcγR affinity assay 'as described in Example 7', n = 3; printed as Affinity (nM) ± STDEV
Method: as §1

[9] = molecular target: T3, FcγRIIb (Pichia pastoris produced); test: ELISA-type plate assay, FcγR coated, antibody dimerized with AP-conjugated goat anti-human IgG F(ab')2, RFU readout; remark: listed apart in the source
Method: as §1

[10] = molecular target: T1, FcγRIIIa-F158 (Pichia pastoris produced); test: ELISA on plate-coated receptor; antibody dimerized with anti-human IgG F(ab')2-AP; ELISA IC50, YGLY23258 (dimer), Table 5 experiment
Method: as §1, with “These dimerized F(ab′)2/antibody complexes were also serially diluted and 100 μL per well were added to the remaining receptor plates and all plates were incubated for one hour at room temperature.” left out

[11] = molecular target: T2, FcγRIIIa-V158 (Pichia pastoris produced); test: as above
Method: as §1, with “These dimerized F(ab′)2/antibody complexes were also serially diluted and 100 μL per well were added to the remaining receptor plates and all plates were incubated for one hour at room temperature.” left out

[12] = molecular target: T3, FcγRIIb (Pichia pastoris produced); test: fold change of the Table 12 affinities; Table 13 fold change computed from the Table 12 affinities
Method: as §1, with “These dimerized F(ab′)2/antibody complexes were also serially diluted and 100 μL per well were added to the remaining receptor plates and all plates were incubated for one hour at room temperature.” left out

[13] = molecular target: T1, FcγRIIIa-F158 (Pichia pastoris produced); test: ELISA on plate-coated receptor; antibody dimerized with anti-human IgG F(ab')2-AP; ELISA IC50, YGLY23258 (dimer), Table 4 experiment
Method: as §1, with “These dimerized F(ab′)2/antibody complexes were also serially diluted and 100 μL per well were added to the remaining receptor plates and all plates were incubated for one hour at room temperature.” left out

[14] = molecular target: T2, FcγRIIIa-V158 (Pichia pastoris produced); test: as above
Method: as §1, with “These dimerized F(ab′)2/antibody complexes were also serially diluted and 100 μL per well were added to the remaining receptor plates and all plates were incubated for one hour at room temperature.” left out

T1 sequence (P08637 17-208 limits assumed): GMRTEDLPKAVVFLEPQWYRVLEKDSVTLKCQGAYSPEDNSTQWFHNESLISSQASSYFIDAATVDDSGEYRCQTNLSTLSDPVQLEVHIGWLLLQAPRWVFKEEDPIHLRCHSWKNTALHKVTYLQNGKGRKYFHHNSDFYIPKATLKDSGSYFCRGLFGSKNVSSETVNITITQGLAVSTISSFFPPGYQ
T2 sequence (P08637 17-208 F176V limits assumed): as the sequence (P08637 17-208 limits assumed) above, with F160V counted along it

| Binder | fold change in affinity vs 1F11 IgG1 GS5.0 [1] [fold] | fold change in affinity vs 1F11 IgG1 GS5.0 [2] [fold] | fold change in affinity vs 1F11 IgG1 GS5.0 [3] [fold] | fold change in affinity vs 1F11 IgG1 GS5.0 [4] [fold] | Kd [5] | koff [5] | kon [5] | EC50 (read off the curve) [6] [mg/L] | EC50 (read off the curve) [7] [mg/L] | Kd [8] [nM] | EC50 (read off the curve) [9] [mg/L] | IC50 [10] [mg/L] | IC50 [11] [mg/L] | fold change in affinity vs 1F11 IgG1 GS5.0 [12] [fold] | IC50 [13] [mg/L] | IC50 [14] [mg/L] |
| --- | --- | --- | --- | --- | --- | --- | --- | --- | --- | --- | --- | --- | --- | --- | --- | --- |
| B1 | 1 | 1 | 1 | 1 | 3.29 nM and 2.3 nM | 0.000499 s⁻¹ and 0.000407 s⁻¹ | 152000 M⁻¹ s⁻¹ and 177000 M⁻¹ s⁻¹ | ~0.02 | ~0.1 | 545 | ~0.2 | – | – | – | – | – |
| B2 | – | – | – | – | – | – | – | – | – | – | – | 0.94 | 0.13 | 3 | 0.69 | 0.12 |
